Experimental data: IntAct's records for PubMed 22854040

B1: Ras-related protein Rab-8A (Homo sapiens), P61006 (parent)
chain: MAKTYDYLFKLLLIGDSGVGKTCVLFRFSEDAFNSTFISTIGIDFKIRTIELDGKRIKLQIWDTAGQERFRTITTAYYRGAMGIMLVYDITNEKSFDNIRNWIRNIEEHASADVEKMILGNKCDVNDKRQVSKERGEKLALDYGIKFMETSAKANINVENAFFTLARDIKAKMDKKLEGNSPQGSNQGVKITPDQQKRSSFFRCVLL

Variants of: B1
Conditions: with tfr1_human TFRC

How did the “effect of a mutation on the interaction” value turn out when T22N was run?
The value was “decreasing interaction”.
